Results taken from IntAct's records for PubMed 29039417.

B1: Isoform 2 of Bardet-Biedl syndrome 7 protein (Homo sapiens), Q8IWZ6-2 (parent)
chain: MDLILNRMDYLQVGVTSQKTMKLIPASRHRATQKVVIGDHDGVVMCFGMKKGEAAAVFKTLPGPKIARLELGGVINTPQEKIFIAAASEIRGFTKRGKQFLSFETNLTESIKAMHISGSDLFLSASYIYNHYCDCKDQHYYLSGDKINDVICLPVERLSRITPVLACQDRVLRVLQGSDVMYAVEVPGPPTVLALHNGNGGDSGEDLLFGTSDGKLALIQITTSKPVRKWEIQNEKKRGGILCIDSFDIVGDGVKDLLVGRDDGMVEVYSFDNANEPVLRFDQMLSESVTSIQGGCVGKDSYDEIVVSTYSGWVTGLTTEPIHKESGPGEELKINQEMQNKISSLRNELEHLQYKVLQERENYQQSSQSSKAKSAVPSFGINDKFTLNKDDASYSLILEVQTAIDNVLIQSDVPIDLLDVDKNSAVVSFSSCDSESNDNFLLATYRCQADTTRLELKIRSIEGQYGTLQAYVTPRIQPKTCQVRQYHIKPLSLHQRTHFIDHDRPMNTLTLTGQFSFAEVHSWVVFCLPEVPEKPPAGECVTFYFQNTFLDTQLESTYRKGEGVFKSDNISTISILKDVLSKEATKRKINLNISYEINEVSVKHTLKLIHPKLEYQLLLAKKVQLIDALKELQIHEGNTNFLIPEYHCILEEADHLQEEYKKQPAHLERLYG
partner: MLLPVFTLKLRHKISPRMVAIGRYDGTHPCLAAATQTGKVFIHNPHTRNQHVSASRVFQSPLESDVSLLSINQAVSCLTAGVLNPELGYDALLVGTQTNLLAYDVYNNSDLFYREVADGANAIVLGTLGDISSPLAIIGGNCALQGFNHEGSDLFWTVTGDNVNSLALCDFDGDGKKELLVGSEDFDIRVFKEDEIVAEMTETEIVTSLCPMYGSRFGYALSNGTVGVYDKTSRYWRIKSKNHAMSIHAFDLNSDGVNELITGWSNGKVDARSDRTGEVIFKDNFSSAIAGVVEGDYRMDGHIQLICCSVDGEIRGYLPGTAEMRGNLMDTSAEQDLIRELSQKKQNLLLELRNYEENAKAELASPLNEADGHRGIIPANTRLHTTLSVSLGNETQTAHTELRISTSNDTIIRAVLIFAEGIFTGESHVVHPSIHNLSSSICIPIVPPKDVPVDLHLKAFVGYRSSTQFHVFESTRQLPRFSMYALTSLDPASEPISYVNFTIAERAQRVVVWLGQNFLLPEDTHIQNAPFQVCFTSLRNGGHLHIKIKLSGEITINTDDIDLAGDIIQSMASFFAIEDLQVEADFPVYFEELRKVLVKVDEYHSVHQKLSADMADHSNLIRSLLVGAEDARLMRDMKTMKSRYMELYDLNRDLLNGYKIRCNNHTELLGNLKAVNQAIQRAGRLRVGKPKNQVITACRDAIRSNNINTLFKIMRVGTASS

Variants of: B1
Details: with bbs2_human BBS2, Q9BXC9

effect of a mutation on the interaction | Variant
with no effect | N507A
with no effect | N507E
with no effect | Q663E
with no effect | G672K
with no effect | T510K
with no effect | G637A
with no effect | G637K
with no effect | I397K
with no effect | S567E
with no effect | T557K
with no effect | P414K
with no effect | N598K
with no effect | I409A
with no effect | I409E
with no effect | A620K
with no effect | A620E
with no effect | V472K
disrupting interaction strength | V472E
with no effect | N439K
with no effect | N439E
disrupting interaction strength | N439A
with no effect | Y646E
with no effect | Y615A

effect of a mutation on the interaction | Variant
with no effect | Y615E
disrupting interaction strength | E614A
with no effect | L509E
disrupting interaction strength | L509P
with no effect | P377A
with no effect | D501K
with no effect | N590K
with no effect | I593A
with no effect | I593E
with no effect | R475K
with no effect | G538A
with no effect | G538K
with no effect | N638K
with no effect | Y471K
with no effect | R669A
with no effect | V483E
disrupting interaction strength | V483I
with no effect | V426E
with no effect | N569A
with no effect | N569K
with no effect | K630E
with no effect | K630A
with no effect | G466K

effect of a mutation on the interaction | Variant
with no effect | N437E
with no effect | E348A
with no effect | V376A
with no effect | L456A
with no effect | D412A
with no effect | D412E
with no effect | Y544K
with no effect | I649K
with no effect | I649E
with no effect | R360E
with no effect | R360K
with no effect | F499E
with no effect | E399A
with no effect | S522K
with no effect | A518K
with no effect | S424K
with no effect | T473K
with no effect | P532E
with no effect | T480A
with no effect | C447K
with no effect | C447E
with no effect | E636A
with no effect | H604K

effect of a mutation on the interaction | Variant
with no effect | H604A
with no effect | Y445K
with no effect | P664E
with no effect | F565A
with no effect | F565E
with no effect | K622E
with no effect | H647A
with no effect | H647E
with no effect | L418K
with no effect | T497A
with no effect | T497E
with no effect | N406K
with no effect | Q353E
with no effect | G329E
with no effect | G380A
with no effect | D450A
with no effect | L493E
with no effect | M506K
with no effect | L608A
with no effect | H502K
with no effect | H521A
with no effect | C432E
with no effect | L618A

effect of a mutation on the interaction | Variant
with no effect | E435K
with no effect | K612A
with no effect | S574E
with no effect | Q657E
with no effect | L576E
with no effect | Q410K
with no effect | K333E
with no effect | K489A
with no effect | A392E
disrupting interaction strength | Q624L
with no effect | Q365A
with no effect | S571K
with no effect | I381A
with no effect | L398E
with no effect | L398A
with no effect | R504K
with no effect | G463A
with no effect | V524K
with no effect | L667K
with no effect | L491A
with no effect | L491E
with no effect | I461A
with no effect | H655E

effect of a mutation on the interaction | Variant
with no effect | V623A
with no effect | L650K
with no effect | L591E
with no effect | L591A
with no effect | I415E
with no effect | I415K
with no effect | S516E
with no effect | E337A
with no effect | K534A
with no effect | Q336A
with no effect | A449K
with no effect | H635E
with no effect | Q616A
with no effect | S460E
with no effect | I575E
with no effect | L352K
with no effect | A584K
with no effect | S369E
with no effect | S369A
with no effect | P611K
with no effect | L441A
with no effect | E645A
with no effect | S326A

effect of a mutation on the interaction | Variant
with no effect | S326E
with no effect | K560E
with no effect | C481E
with no effect | C481K
disrupting interaction strength | C481R
with no effect | T552K
with no effect | T552E
with no effect | V407E
with no effect | G513A
with no effect | G513E
with no effect | Q401E
with no effect | L454E
with no effect | L454A
with no effect | Y671E
with no effect | R446A
with no effect | R446K
with no effect | G563E
with no effect | D627E
with no effect | H351E
with no effect | R587K
with no effect | E659K
with no effect | D433K
with no effect | L408K

effect of a mutation on the interaction | Variant
with no effect | N362E
with no effect | E555A
with no effect | D419A
with no effect | D654A
with no effect | I334K
with no effect | L396E
with no effect | A537E
with no effect | K603E
with no effect | K603A
with no effect | R496A
with no effect | R496E
with no effect | S436E
with no effect | S436K
with no effect | S436A
with no effect | Q485A
disrupting interaction strength | Q485R
disrupting interaction strength | Q485L
with no effect | D578A
with no effect | L656E
with no effect | V579K
with no effect | Q514E
with no effect | N547E
